Test results as given in patent US20220332837A1.

Molecular target: OX40-6His Protein-196AAs-21.82 kDa (recombinant canine OX40) (canine)
Assay: phage ELISA, OX-40 coated (control)

Sequence of OX40-6His Protein-196AAs-21.82 kDa (recombinant canine OX40) (canine) (chain, as listed by the source limits assumed): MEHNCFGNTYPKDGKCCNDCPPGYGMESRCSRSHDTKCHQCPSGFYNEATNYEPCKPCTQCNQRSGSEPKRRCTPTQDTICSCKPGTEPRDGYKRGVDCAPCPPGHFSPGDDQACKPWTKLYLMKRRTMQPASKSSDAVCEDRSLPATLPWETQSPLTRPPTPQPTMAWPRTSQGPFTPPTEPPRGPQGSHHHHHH

- ELISA signal, Coating: OX-40: 0.35
Substance: M13KO7
